In paper doi:10.1101/2020.11.17.387829v1:
Where two headings read alike, the source gives them in different places.

Substrate: O=[N+]([O-])c1ccc(O[C@@H]2O[C@H](CO)[C@@H](O)[C@H](O)[C@H]2O)cc1
Experiment: purified protein
[1] = average of two wild-type replicates (WT-1 2.4 mM, WT-2 5.3 ± 0.4 mM)
[2] = error exceeds the value, nearly inactive
[3] = poorly determined fit: large printed errors

B1: β-glucosidase B (BglB) (Paenibacillus polymyxa) (protein)
chain: MSENTFIFPATFMWGTSTSSYQIEGGTDEGGRTPSIWDTFCQIPGKVIGGDCGDVACDHFHHFKEDVQLMKQLGFLHYRFSVAWPRIMPAAGIINEEGLLFYEHLLDEIELAGLIPMLTLYHWDLPQWIEDEGGWTQRETIQHFKTYASVIMDRFGERINWWNTINEPYCASILGYGTGEHAPGHENWREAFTAAHHILMCHGIASNLHKEKGLTGKIGITLNMEHVDAASERPEDVAAAIRRDGFINRWFAEPLFNGKYPEDMVEWYGTYLNGLDFVQPGDMELIQQPGDFLGINYYTRSIIRSTNDASLLQVEQVHMEEPVTDMGWEIHPESFYKLLTRIEKDFSKGLPILITENGAAMRDELVNGQIEDTGRHGYIEEHLKACHRFIEEGGQLKGYFVWSFLDNFEWAWGYSKRFGIVHINYETQERTPKQSALWFKQMMAKNGF
For B1, the Km [1] was 3.9 ± 0.3 mM and the kcat [1] was 12.4 ± 0.158 s⁻¹.

B2: β-glucosidase B (BglB) (Paenibacillus polymyxa; L174M) (protein)
chain: MSENTFIFPATFMWGTSTSSYQIEGGTDEGGRTPSIWDTFCQIPGKVIGGDCGDVACDHFHHFKEDVQLMKQLGFLHYRFSVAWPRIMPAAGIINEEGLLFYEHLLDEIELAGLIPMLTLYHWDLPQWIEDEGGWTQRETIQHFKTYASVIMDRFGERINWWNTINEPYCASIMGYGTGEHAPGHENWREAFTAAHHILMCHGIASNLHKEKGLTGKIGITLNMEHVDAASERPEDVAAAIRRDGFINRWFAEPLFNGKYPEDMVEWYGTYLNGLDFVQPGDMELIQQPGDFLGINYYTRSIIRSTNDASLLQVEQVHMEEPVTDMGWEIHPESFYKLLTRIEKDFSKGLPILITENGAAMRDELVNGQIEDTGRHGYIEEHLKACHRFIEEGGQLKGYFVWSFLDNFEWAWGYSKRFGIVHINYETQERTPKQSALWFKQMMAKNGF
B2 gave a Km of 4.3 ± 0.3 mM and a kcat of 14.79 ± 0.405 s⁻¹.

B3: β-glucosidase B (BglB) (Paenibacillus polymyxa; E409W) (protein)
chain: MSENTFIFPATFMWGTSTSSYQIEGGTDEGGRTPSIWDTFCQIPGKVIGGDCGDVACDHFHHFKEDVQLMKQLGFLHYRFSVAWPRIMPAAGIINEEGLLFYEHLLDEIELAGLIPMLTLYHWDLPQWIEDEGGWTQRETIQHFKTYASVIMDRFGERINWWNTINEPYCASILGYGTGEHAPGHENWREAFTAAHHILMCHGIASNLHKEKGLTGKIGITLNMEHVDAASERPEDVAAAIRRDGFINRWFAEPLFNGKYPEDMVEWYGTYLNGLDFVQPGDMELIQQPGDFLGINYYTRSIIRSTNDASLLQVEQVHMEEPVTDMGWEIHPESFYKLLTRIEKDFSKGLPILITENGAAMRDELVNGQIEDTGRHGYIEEHLKACHRFIEEGGQLKGYFVWSFLDNFWWAWGYSKRFGIVHINYETQERTPKQSALWFKQMMAKNGF
For B3, the Km [2] was 2.5 ± 3.1 mM and the kcat [2] was 0.0017 ± 0.0017 s⁻¹.

B4: β-glucosidase B (BglB) (Paenibacillus polymyxa; H181M) (protein)
chain: MSENTFIFPATFMWGTSTSSYQIEGGTDEGGRTPSIWDTFCQIPGKVIGGDCGDVACDHFHHFKEDVQLMKQLGFLHYRFSVAWPRIMPAAGIINEEGLLFYEHLLDEIELAGLIPMLTLYHWDLPQWIEDEGGWTQRETIQHFKTYASVIMDRFGERINWWNTINEPYCASILGYGTGEMAPGHENWREAFTAAHHILMCHGIASNLHKEKGLTGKIGITLNMEHVDAASERPEDVAAAIRRDGFINRWFAEPLFNGKYPEDMVEWYGTYLNGLDFVQPGDMELIQQPGDFLGINYYTRSIIRSTNDASLLQVEQVHMEEPVTDMGWEIHPESFYKLLTRIEKDFSKGLPILITENGAAMRDELVNGQIEDTGRHGYIEEHLKACHRFIEEGGQLKGYFVWSFLDNFEWAWGYSKRFGIVHINYETQERTPKQSALWFKQMMAKNGF
With B4 the Km was 5.6 ± 1.9 mM and the kcat was 11.98 ± 1.807 s⁻¹.

B5: β-glucosidase B (BglB) (Paenibacillus polymyxa; M224L) (protein)
chain: MSENTFIFPATFMWGTSTSSYQIEGGTDEGGRTPSIWDTFCQIPGKVIGGDCGDVACDHFHHFKEDVQLMKQLGFLHYRFSVAWPRIMPAAGIINEEGLLFYEHLLDEIELAGLIPMLTLYHWDLPQWIEDEGGWTQRETIQHFKTYASVIMDRFGERINWWNTINEPYCASILGYGTGEHAPGHENWREAFTAAHHILMCHGIASNLHKEKGLTGKIGITLNLEHVDAASERPEDVAAAIRRDGFINRWFAEPLFNGKYPEDMVEWYGTYLNGLDFVQPGDMELIQQPGDFLGINYYTRSIIRSTNDASLLQVEQVHMEEPVTDMGWEIHPESFYKLLTRIEKDFSKGLPILITENGAAMRDELVNGQIEDTGRHGYIEEHLKACHRFIEEGGQLKGYFVWSFLDNFEWAWGYSKRFGIVHINYETQERTPKQSALWFKQMMAKNGF
For B5, the Km was 4.2 mM and the kcat was 10.51 s⁻¹.

B6: β-glucosidase B (BglB) (Paenibacillus polymyxa; F418M) (protein)
chain: MSENTFIFPATFMWGTSTSSYQIEGGTDEGGRTPSIWDTFCQIPGKVIGGDCGDVACDHFHHFKEDVQLMKQLGFLHYRFSVAWPRIMPAAGIINEEGLLFYEHLLDEIELAGLIPMLTLYHWDLPQWIEDEGGWTQRETIQHFKTYASVIMDRFGERINWWNTINEPYCASILGYGTGEHAPGHENWREAFTAAHHILMCHGIASNLHKEKGLTGKIGITLNMEHVDAASERPEDVAAAIRRDGFINRWFAEPLFNGKYPEDMVEWYGTYLNGLDFVQPGDMELIQQPGDFLGINYYTRSIIRSTNDASLLQVEQVHMEEPVTDMGWEIHPESFYKLLTRIEKDFSKGLPILITENGAAMRDELVNGQIEDTGRHGYIEEHLKACHRFIEEGGQLKGYFVWSFLDNFEWAWGYSKRMGIVHINYETQERTPKQSALWFKQMMAKNGF
B6 gave a Km [3] of 29.6 ± 20.5 mM and a kcat [3] of 0.37 ± 0.572 s⁻¹.

B7: β-glucosidase B (BglB) (Paenibacillus polymyxa; N163E) (protein)
chain: MSENTFIFPATFMWGTSTSSYQIEGGTDEGGRTPSIWDTFCQIPGKVIGGDCGDVACDHFHHFKEDVQLMKQLGFLHYRFSVAWPRIMPAAGIINEEGLLFYEHLLDEIELAGLIPMLTLYHWDLPQWIEDEGGWTQRETIQHFKTYASVIMDRFGERINWWETINEPYCASILGYGTGEHAPGHENWREAFTAAHHILMCHGIASNLHKEKGLTGKIGITLNMEHVDAASERPEDVAAAIRRDGFINRWFAEPLFNGKYPEDMVEWYGTYLNGLDFVQPGDMELIQQPGDFLGINYYTRSIIRSTNDASLLQVEQVHMEEPVTDMGWEIHPESFYKLLTRIEKDFSKGLPILITENGAAMRDELVNGQIEDTGRHGYIEEHLKACHRFIEEGGQLKGYFVWSFLDNFEWAWGYSKRFGIVHINYETQERTPKQSALWFKQMMAKNGF
In the case of B7, the Km (error exceeds the value) is reported as 21.4 ± 52.4 mM and the kcat (error exceeds the value) is reported as 1.02 ± 0.483 s⁻¹.
